Results reported in publication PMC8828746.

molecular target: Fc-tagged human angiotensin-converting enzyme 2 (hACE2) (human) (UniProt Q9BYF1); assay: BLI

Substance | Kd [nM]
6× His-tagged S1 protein of SARS-CoV-2 Kappa (B.1.617.1) variant (domain or fragment) | 4.85
6× His-tagged S1 protein of SARS-CoV-2 Omicron (B.1.1.529) variant (domain or fragment) | 7.4
6× His-tagged S1 protein of SARS-CoV-2 Delta (B.1.617.2) variant (domain or fragment) | 5.03
